Data from article PMC10256678, “Structural mechanism of intracellular autoregulation of zinc uptake in ZIP transporters” (Nature Communications, 2023).

Biological target: the molecule itself
Assay: cryo-EM structure; BbZIP in amphipol PMAL-C8 nanoparticles, purified with Cd2+, 20 mM HEPES pH 7.5, 100 mM NaCl; C2 symmetry, 3.05 Å (C1: 3.3 Å)

B1: ZIP-family zinc transporter from Bordetella bronchiseptica (BbZIP) (natural protein, UniProt A0A0H3LM39 1-309, looked up)
chain: MNQPSSLAADLRGAWHAQAQSHPLITLGLAASAAGVVLLLVAGIVNALTGENRVHVGYAVLGGAAGFAATALGALMALGLRAISARTQDAMLGFAAGMMLAASAFSLILPGLDAAGTIVGPGPAAAAVVALGLGLGVLLMLGLDYFTPHEHERTGHQGPEAARVNRVWLFVLTIILHNLPEGMAIGVSFATGDLRIGLPLTSAIAIQDVPEGLAVALALRAVGLPIGRAVLVAVASGLMEPLGALVGVGISSGFALAYPISMGLAAGAMIFVVSHEVIPETHRNGHETTATVGLMAGFALMMFLDTALG
notes: Zrt-/Irt-like protein (ZIP) zinc transporter of Bordetella bronchiseptica, full length gene synthesized and cloned into pET15b; molecular weight 31 kDa; Membrane protein; purified with Cd2+ (CdCl2) present; three Cd2+ ions per protomer and two phosphatidylethanolamine lipids at the dimer in the cryo-EM structure; also called WT BbZIP; source: E. coli C43 (DE3), purified (Ni-NTA, thrombin …)
- stoichiometry N: 2
